Measured values as given in patent US20150344570A1 (published 2015).

Target: T1, FcγRIIa R (extracellular domain, His tag at the C terminus) (human, UniProt P12318 34-217)
T1 construct: extracellular domain; Soluble analyte in Biacore; also called FcgRIIa R type; 2aR
T1 sequence (looked up): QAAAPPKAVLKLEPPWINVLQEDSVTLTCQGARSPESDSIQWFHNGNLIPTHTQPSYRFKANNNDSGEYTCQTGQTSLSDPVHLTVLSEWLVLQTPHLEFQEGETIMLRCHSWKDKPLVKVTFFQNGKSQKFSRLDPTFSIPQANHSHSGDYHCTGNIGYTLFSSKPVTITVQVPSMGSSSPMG
Assay: SPR (Biacore), relative binding, control GpH7-A5/GpH7-B3/GpL16-k0 = 100
Experimental: Analysis of interaction between objective antibody and the FcγR was carried out using Biacore T100 (GE Healthcare). HBS-EP+ (GE Healthcare) was used as the running buffer, and the measurement temperature was set to 25° C. Chips produced by immobilizing the antigen peptide by the amine coupling method to a Series S Sencor Chip CM5 (GE Healthcare), or alternatively, chips produced by allowing preliminarily biotinylated antigen peptides to interact with and immobilize onto a Series S Sensor Chip SA (certified) (GE Healthcare) were used. Antibodies of interest were captured onto an antigen peptide-immobilized chip, and allowed to interact to each FcγR diluted with running buffer. To regenerate and repeatedly use the chip, the antibodies captured on the chip were washed off by reacting 10 mM glycine-HCl, pH 1.5.

Binder	He/Con_2aR
GpH7-A5/GpH7-B3 variant L328_07I/GpL16-k0 (antibody, human IgG1, kappa, heterodimerized; also called He Ab) heavy 1: not shown heavy 2: not shown light: DIVMTQSPLSLPVTPGEPASISCQASESLVHSNRNTYLHWYLQKPGQSPQLLIYKVSNRFSGVPDRFSGSGSGTDFTLKISRVEAEDVGVYYCSQNTHVPPTFGQGTKVEIERTVAAPSVFIFPPSDEQLKSGTASVVCLLNNFYPREAKVQWKVDNALQSGNSQESVTEQDSKDSTYSLSSTLTLSKADYEKHKVYACEVTHQGLSSPVTKSFNRGEC	124 % of control
GpH7-A5/GpH7-B3 variant L328_15Y/GpL16-k0 (antibody, human IgG1, kappa, heterodimerized; also called He Ab) heavy 1: not shown heavy 2: not shown light: DIVMTQSPLSLPVTPGEPASISCQASESLVHSNRNTYLHWYLQKPGQSPQLLIYKVSNRFSGVPDRFSGSGSGTDFTLKISRVEAEDVGVYYCSQNTHVPPTFGQGTKVEIERTVAAPSVFIFPPSDEQLKSGTASVVCLLNNFYPREAKVQWKVDNALQSGNSQESVTEQDSKDSTYSLSSTLTLSKADYEKHKVYACEVTHQGLSSPVTKSFNRGEC	136 % of control
GpH7-A5/GpH7-B3 variant T335_06M/GpL16-k0 (antibody, human IgG1, kappa, heterodimerized; also called He Ab) heavy 1: not shown heavy 2: not shown light: DIVMTQSPLSLPVTPGEPASISCQASESLVHSNRNTYLHWYLQKPGQSPQLLIYKVSNRFSGVPDRFSGSGSGTDFTLKISRVEAEDVGVYYCSQNTHVPPTFGQGTKVEIERTVAAPSVFIFPPSDEQLKSGTASVVCLLNNFYPREAKVQWKVDNALQSGNSQESVTEQDSKDSTYSLSSTLTLSKADYEKHKVYACEVTHQGLSSPVTKSFNRGEC	105 % of control
GpH7-A5/GpH7-B3 variant S337_14T/GpL16-k0 (antibody, human IgG1, kappa, heterodimerized; also called He Ab) heavy 1: not shown heavy 2: not shown light: DIVMTQSPLSLPVTPGEPASISCQASESLVHSNRNTYLHWYLQKPGQSPQLLIYKVSNRFSGVPDRFSGSGSGTDFTLKISRVEAEDVGVYYCSQNTHVPPTFGQGTKVEIERTVAAPSVFIFPPSDEQLKSGTASVVCLLNNFYPREAKVQWKVDNALQSGNSQESVTEQDSKDSTYSLSSTLTLSKADYEKHKVYACEVTHQGLSSPVTKSFNRGEC	110 % of control
GpH7-A5/GpH7-B3 variant T335_04F/GpL16-k0 (antibody, human IgG1, kappa, heterodimerized; also called He Ab) heavy 1: not shown heavy 2: not shown light: DIVMTQSPLSLPVTPGEPASISCQASESLVHSNRNTYLHWYLQKPGQSPQLLIYKVSNRFSGVPDRFSGSGSGTDFTLKISRVEAEDVGVYYCSQNTHVPPTFGQGTKVEIERTVAAPSVFIFPPSDEQLKSGTASVVCLLNNFYPREAKVQWKVDNALQSGNSQESVTEQDSKDSTYSLSSTLTLSKADYEKHKVYACEVTHQGLSSPVTKSFNRGEC	108 % of control
GpH7-A5/GpH7-B3 variant V266_06M/GpL16-k0 (antibody, human IgG1, kappa, heterodimerized; also called He Ab) heavy 1: not shown heavy 2: not shown light: DIVMTQSPLSLPVTPGEPASISCQASESLVHSNRNTYLHWYLQKPGQSPQLLIYKVSNRFSGVPDRFSGSGSGTDFTLKISRVEAEDVGVYYCSQNTHVPPTFGQGTKVEIERTVAAPSVFIFPPSDEQLKSGTASVVCLLNNFYPREAKVQWKVDNALQSGNSQESVTEQDSKDSTYSLSSTLTLSKADYEKHKVYACEVTHQGLSSPVTKSFNRGEC	150 % of control
GpH7-A5/GpH7-B3 variant T335_08L/GpL16-k0 (antibody, human IgG1, kappa, heterodimerized; also called He Ab) heavy 1: not shown heavy 2: not shown light: DIVMTQSPLSLPVTPGEPASISCQASESLVHSNRNTYLHWYLQKPGQSPQLLIYKVSNRFSGVPDRFSGSGSGTDFTLKISRVEAEDVGVYYCSQNTHVPPTFGQGTKVEIERTVAAPSVFIFPPSDEQLKSGTASVVCLLNNFYPREAKVQWKVDNALQSGNSQESVTEQDSKDSTYSLSSTLTLSKADYEKHKVYACEVTHQGLSSPVTKSFNRGEC	108 % of control
GpH7-A5/GpH7-B3 variant S267_01G/GpL16-k0 (antibody, human IgG1, kappa, heterodimerized; also called He Ab) heavy 1: not shown heavy 2: not shown light: DIVMTQSPLSLPVTPGEPASISCQASESLVHSNRNTYLHWYLQKPGQSPQLLIYKVSNRFSGVPDRFSGSGSGTDFTLKISRVEAEDVGVYYCSQNTHVPPTFGQGTKVEIERTVAAPSVFIFPPSDEQLKSGTASVVCLLNNFYPREAKVQWKVDNALQSGNSQESVTEQDSKDSTYSLSSTLTLSKADYEKHKVYACEVTHQGLSSPVTKSFNRGEC	113 % of control
GpH7-A5/GpH7-B3 variant S239_01G/GpL16-k0 (antibody, human IgG1, kappa, heterodimerized; also called He Ab) heavy 1: not shown heavy 2: not shown light: DIVMTQSPLSLPVTPGEPASISCQASESLVHSNRNTYLHWYLQKPGQSPQLLIYKVSNRFSGVPDRFSGSGSGTDFTLKISRVEAEDVGVYYCSQNTHVPPTFGQGTKVEIERTVAAPSVFIFPPSDEQLKSGTASVVCLLNNFYPREAKVQWKVDNALQSGNSQESVTEQDSKDSTYSLSSTLTLSKADYEKHKVYACEVTHQGLSSPVTKSFNRGEC	128 % of control
GpH7-A5/GpH7-B3 variant P271_01G/GpL16-k0 (antibody, human IgG1, kappa, heterodimerized; also called He Ab) heavy 1: not shown heavy 2: not shown light: DIVMTQSPLSLPVTPGEPASISCQASESLVHSNRNTYLHWYLQKPGQSPQLLIYKVSNRFSGVPDRFSGSGSGTDFTLKISRVEAEDVGVYYCSQNTHVPPTFGQGTKVEIERTVAAPSVFIFPPSDEQLKSGTASVVCLLNNFYPREAKVQWKVDNALQSGNSQESVTEQDSKDSTYSLSSTLTLSKADYEKHKVYACEVTHQGLSSPVTKSFNRGEC	144 % of control
GpH7-A5/GpH7-B3 variant S267_07I/GpL16-k0 (antibody, human IgG1, kappa, heterodimerized; also called He Ab) heavy 1: not shown heavy 2: not shown light: DIVMTQSPLSLPVTPGEPASISCQASESLVHSNRNTYLHWYLQKPGQSPQLLIYKVSNRFSGVPDRFSGSGSGTDFTLKISRVEAEDVGVYYCSQNTHVPPTFGQGTKVEIERTVAAPSVFIFPPSDEQLKSGTASVVCLLNNFYPREAKVQWKVDNALQSGNSQESVTEQDSKDSTYSLSSTLTLSKADYEKHKVYACEVTHQGLSSPVTKSFNRGEC	111 % of control
